Target: Tissue Factor VIIa (UniProt P13726)
Test: enzyme inhibition; Tissue Factor VIIa

B1: recombinant placental bikunin (1-170) from baculovirus/Sf9 cells (protein)
chain: ADRERSIHDFCLVSKVVGRCRASMPRWWYNVTDGSCQLFVYGGCDGNSNNYLTKEECLKKCATVTENATGDLATSRNAADSSVPSAPRRQDSEDHSSDMFNYEEYCTANAVTGPCRASFPRWYFDVERNSCNNFIYGGCRGNKNSYRSEEACMLRCFRQQENPPLPLGSK
modifications: chain 1 pos 30: Asn probably N-glycosylated (no PTH residue at cycle 30), written N; six intrachain disulfides of the two Kunitz domains
  Ki: 800 nM
